One molecule from US20240400698A1, “ANTI-CHEMOKIN LIKE RECEPTOR 1 ANTIBODIES AND THEIR THERAPEUTIC APPLICATIONS” (OSE IMMUNOTHERAPEUTICS, priority 2018, published 2024) can be followed below.

The subject of assay [1] is IL-10KO mice, spontaneous colitis. The experiment in a line: IL10-KO spontaneous chronic colitis model. Format: in vivo. To be noted: 25 μg/injection i.p., 3 times a week, vs isotype control. On the procedure: FIG. 4. […] Mice KO for IL10 develop a spontaneous inflammatory colitis. They were treated with an Anti-CMKLR1 antibody (2G1) ( ) or isotype control (hIgG1) (x) intra-peritoneally (25 μg/injection, 3 times a week). A. Animal weight loss during and after treatment. B. Animal score stool.
IL-10KO mice develop a spontaneous colitis from 20 weeks of age mostly due to the absence of regulatory T cells function through IL-10 secretion in the intestine. IL-10KO mice were followed-up three times a week from 18-week old for their weight loss and stool consistency which are clinical hallmarks of this pathology.

Assay [2] has as its system mice, peritonitis induced by Zymosan A. Description: Zymosan A peritonitis model (sepsis). Format: in vivo. As to conditions: preventive injection, vs isotype control. On the procedure: FIG. 7. […] Preventive injection of anti-CMKLR1 was performed before Zymosan A injection (1 mg per mouse in 1 mL): RvE1 (1 μg per mouse) (•), 2G1 antibody (10 μg per mouse) ( ) or isotype control antibody (x). A. PMN numbered during the first 50 hours after Zymosan A injection. B. Macrophages numbered during the first 50 hours after Zymosan A injection. C. Resolution index.
Common peritonitis is induced by intraperitoneal injection of Zymosan A® (1 mg per mouse in 1 mL). Preventive injection of anti-CMKLR1 was performed 5 minutes before Zymosan A injection: RvE1 (1 μg per mouse), 2G1 antibody (10 μg per mouse). Murine peritoneal polymorphonuclear neutrophil (PMN) and macrophages were collected at 2-4-8-16-24 and 48 h after Zymosan A injection and numbered by flow cytometry analysis to determinate the resolution index (Bannenberg et al., 2005).

The next assay has as its system 4T1 cells. Description: Orthotopic 4T1 mammary carcinoma model, primary tumor and metastasis. Format: in vivo, mice. On the procedure:
FIG. 8. […] Mice were inoculated with 4T1 cells (0.25 millions) in the mammary gland. […] A. The tumor area was measured 8 days after tumor injection and then every 2 days. B. Tumor lung metastasis was measured by Bioluminescence imaging (BLI) in animals treated with isotype control and anti-CMKLR1 antibody (n=4).
Mice were anesthetized with 3% of isoflurane. Mice were shaved on the abdomen and 4T1 cells (0.25 millions) were injected in the mammary gland with an insulinic syringe (30 Gauges) in 50 μL of PBS. […] In a second study to measure the lung metastasis following mammary carcinoma development, animals were treated with anti-CMKLR1 antibody at 0.8 mg/kg or control antibody (100 μg/injection) three times a week for three weeks.

Assay [3] relates to human macrophages M1 or M2. Description: Human monocyte differentiation and polarization, CD200R by FACS and cytokine secretion by ELISA, FIG. 16. Format: cell-based. To be noted: human cells, 2 μg/ml. On the procedure:
FIG. 16. Study of the inflammatory cytokine secretion by human macrophages during CMKLR1 activation. After differentiation of human monocytes, cells were incubated in presence of different isotype controls (mIgG4; hIgG4 or hIgG1 at […]); C7 commercial anti-CMKLR1 antibody (2 μg/ml); 2G4 or 2G1 antibodies (2 μg/ml), or other commercial anti-CMKLR1 antibodies (H6 (2 μg/ml), BZ332 (2 μg/ml) or 84939 (2 μg/ml), C15 peptides (10 nM), or RvE1 (10 ng/ml). A. Expression of the CD200R marker measured by FACS. B. IL10 cytokine secretion by M2 cells. C. CCL17 cytokine secretion by M2 cells. D. represents IL12 cytokine secretion by M1 cells. Secretion of IL10, CCL17 and IL12p40 were assessed by ELISA.
Monocytes were collected from PBMC of buffy coat of healthy volunteers and isolated by magnetic separation or by elutriation. Then, monocytes were cultured with different cocktails of cytokines to generate differentiated unpolarized macrophages or polarized macrophages. This protocol allowed to generate polarized differentiated macrophages in order to have pro-(M1) or anti-(M2) inflammatory macrophages in different wells. Monocytes were plated at 0.5·10^6 cells/mL in complete RPMI (RPMI with 10% FBS, 1% glutamine, 1% antibiotics) and 500 μL of the cell suspension was plated per well in a 24-well plate. 100 ng/ml of M-CSF was added with medium for differentiation of the cells. Cells were incubated 5 days and medium was replaced with fresh medium complemented with 100 ng/ml of M-CSF at day 3. For the polarization phases, solution of LPS-IFNg at 100 ng/ml of LPS and 20 ng/ml of IFNg complemented with isotype controls (mIgG1 or hIgG4) (2 μg/ml) or anti-CMKLR1 antibodies (2 μg/ml) (2G1 or 2G4, H6, BZ332 or 84939) or with C15 peptide (10 nM) or RvE1 (10 ng/ml) during 3 days to generate M1 macrophages. M1-IFNg macrophages could also be generated by adding only IFNg (20 ng/ml) in culture medium. […]
Cytokines secretion was detected by ELISA according to the BD manufacturer instructions. […] TMB supplied by BD Bioscience was used as substrate and colorimetric reaction was read with TECAN.
(In general: A flow cytometer gives signals particle by particle.)

The test system of assay [4] is Rag1 knock-out mice, CD45Rb high CD4 T cell transfer colitis. Description: CD45Rb high T-cell transfer chronic colitis mouse model. To be noted: FIG. 21; 1 mg/kg three times a week for 3 weeks from day 32; control mice start to lose weight. Format: in vivo. On the procedure: Weight variation of treated animals was followed up to sixty days. Animals were treated with isotype control hIgG1 (x) or anti-CMKLR1 antibody (=).
Method: CD45Rb^high CD4 T cells were isolated from the spleen of naive mice and sorted on an ARIA FACS after a negative selection of the CD4 T cells by magnetic sorting, then injected intraperitoneally at 0.5·10^6 cells in 100 μL of PBS into 6-weeks old female Rag1 knock-out mice. Anti-CMKLR1 antibody (2G1) or an isotype control were administered from day 32 after the CD45Rb^high CD4 T cell transfer for 3 weeks three times a week at 1 mg/kg. The follow-up of weight was evaluated three times a week and the weight variation was determined over the initial weight. * p<0.05, ** p<0.01.

B1: 2G1: chimeric anti-CMKLR1 antibody, murine variable regions (SEQ ID No: 10 and 17), human IgG1 constant regions; VH-CDR3 variant LI (antibody, V domains shown)
VH: METDTLLLWVLLLWVPGSTGDEVQLVASGGGLVQPGGSLKLSCAASGFTFSSYGMSWVRQTPDRRLELVATINRYGGSTYYPDSVKGRFTISRDNAKNTLYLQMSSLKSEDTAMYYCPRLIYYGNEGDSWGQGTTLTVSS
VL: METDTLLLWVLLLWVPGSTGDQIVLTQSPAIMSASPGEKVTMTCSASSSVSFMHWYQQKSGTSPKRWIYDTTKLTSGVPARFSGSGSGTFYSLTISSMEAEDAATYYCQQWNSKPPLTFGPGTKLELKR
modifications: human IgG1 constant regions
notes: VH-CDR3 variant LI
Consider B1, for which, in assay [1] (FIG. 4A), the “percentage of weight loss” value was “lost less weight”. Besides, the score stool entry in assay [1] (FIG. 4B) is listed as “better score stool”. Also, the PMNs number entry in assay [2] (FIG. 7A) is “slightly less”. Besides, in assay [2] (FIG. 7B), the macrophages number result is reported as “slightly less”. Also, the resolution index entry in assay [2] (FIG. 7C) was “better resolution index”. In addition, the “tumor growth (tumor area)” value with 4T1 cells (4T1 mammary carcinoma, FIG. 8A, 10 μg/injection at day 4 and day 7, vs isotype control) is “did not show any improvement in the tumor growth”. In addition, the “lung metastasis by bioluminescence imaging” value in the assay on 4T1 cells (4T1 model, FIG. 8B, 0.8 mg/kg three times a week for three weeks, vs control antibody) was “reduces the lung metastasis”. For the same molecule, the lymph node metastasis result with 4T1 cells (4T1 model, data not shown, two animals in the control have metastasis) is on record as “no animals treated with the anti-CMKLR1 compound has metastasis”. Besides, in assay [3], the “CCL17 secretion by M2 type macrophages” value was “able to induce”, the “IL10 secretion by M2 type macrophages” value is listed as “able to induce” and the “secretion of the IL12p40 cytokine by M1 type macrophages” value is on record as “able to decrease the secretion”. Also, the weight variation result in assay [4] is “continue to gain weight”.
